In the DeepSol protein solubility set:

Experiment: soluble on expression in E. coli; label from the status in PepcDB or PDB records

Q: Which “soluble on expression in E. coli” value does the source give for “MGSDKIHHHHHHMRHLKAFYVFHVTAESSNYSKAAEKLHITHGAVSKQIKLLESHLSQMLFYKQGRGMCLTQEGELLKQYTDIAFNALDNGIKKLTRESNKHLEVSCEPTLTMRWLMPRLASFFRLTGIDVRLSTAGGPVDLNETGLSLAIRRDDFDISPEYTAHNLVNEWVGPVFSPEYWRKSQNNLGDIVLLHSETRPSAWSDWSSRSKHTFYTNKSKSFEHFYFCLQAAVDGLGAAIGSYPLIVDDLKSGRLVAPFGFTQSGHKYVLLSHTERLGSNELEFLTWLEKTMSLCQPETP” here?
A: Its value is “not soluble”.

Q: With “MLRFDHLVHAVHGTPEEAAKQMQELGFHTVLGGEHTNWGTWNSLSYFDLSYIEFLAVQYEEKAKEAENPLVQETVVKLQNGEGMLQIAIRTDAIEELAVNFNKYGLHTIGPFEGKRMRKDGRLLEWKMLFVKQEENGPKLPFFIQWNETDEERRNDLRNSGTITEHKNKVQQIETIHYAVKNVRETVRKWKEVMELSTSSVVKIEKWNAECQSVVFGDIHVQFCEPIGEGLVLEHLNKNGENPFAVEFKGGNKREHEVLGSLYIY” as the sequence, how does the “soluble on expression in E. coli” value read?
A: The value was “not soluble”.

Q: For “MGSSHHHHHHGKTIFVIVPTNEEQVAFLEALAKQDELNFDWQNPPTEPGQPVVILIPSDMVEWFLEMLKAKGIPFTVYVEEGGSENLYFQGGGGGGSDGAIVPREGSPQSISEELERRRSEARNLELRVSRKEAELQRAKEEQELLKEMRTVNEMIIRKKERQLSEGVANGVKISPESLAELNALGDALRLENLKTVELQREADVTSHQMEEVERSLENTEKQLLEAKRSTGWDVDRNSARTETAMESAFKEKKRLLSSLTSEQRTLSELSERLKQHAEECQAKVDAAEGMDERFAEAEEQLRQANARYRELIEEVMSNERIQKKTERVLTVANTQDKYKCIRQLEGEKRALHNDLSKLRETNVSNSRSILSLEVRLRQLETRLEAVNGFLREVFAEVEDDEPMDNVPEGAVEVPLALFEELSAALELSRETVVQRDDQLDEHDCKIEQMERKVVILQNAIASRAVSAQVQARGRDTQQRSMYANHSRRRSQLRTERDQLAVENTVLRNRLALL”, which “soluble on expression in E. coli” value is on record?
A: Its value is “not soluble”.

Q: Which “soluble on expression in E. coli” value does the source give for “MAHHHHHHMPSMTSLLHKSLVVCFTSRISIFTSRPARGTAASAQLSLSSVPTAEHLECWTRQGDCVVGREEVACASCLGGYLAAGTISGLVLLYFCGAAESLVKELVRFNVGYGVTGMQLLPNDTLLVVTSVGDVWRWPLCDLLRNADASGAEGEKDEATEAEPTAAAHQPPLPLAAPRVPAAPSPQDKTLHTEPRVPATPEEVSYTQEGDTEDRSFSAHDTSTLAHTPQREREATARVEEIVTAVRVGADVPLVGARSDAEEQGTPSVHLSTASASLRALSASSENDGDEDHPDERGNDNTDMDARRAEPATVSCLPPPPPLASPTVSDKFEEKRGVGGVTRCATEFQRRTLYDPEQSTEEPGVVDMGVPSSAAGNSADLSHDGLRIAVSPPSTADNTAHHDAVLEDSGADVPEVAARGSAAGAAAVAAKEGTISDKHIQPFQRNHGDLSDTADVAQGTAHSSPGITSRQGTGMKAAVDDLEHEFAHAMKRLLGPTVGVEGLRKDRRMNPRKVAGVLANLTNQQAAAAGAKGLSYEAPSQPRALEGPNSTKLLEEKRTTLEAAVFDFEAYRQAHRLEVDALQYHHPVPAPTYTLQDRVFDAVESAGRLCDKEAGRATGAAGNAAATLPAAPEDELRDVTYGKVKWTLDPQIAEERRRGGPEMAQHHCDHLIFSTPYPAKATVLFAEEAPLMPSTAWEEVLLLPLPLPPAPSVF” here?
A: Its value is “soluble”.

Q: With “MDLTVEPNLHSLITSTTHKWIFVGGKGGVGKTTSSCSIAIQMALSQPNKQFLLISTDPAHNLSDAFGEKFGKDARKVTGMNNLSCMEIDPSAALKDMNDMAVSRANNNGSDGQGDDLGSLLQGGALADLTGSIPGIDEALSFMEVMKHIKRQEQGEGETFDTVIFDTAPTGHTLRFLQLPNTLSKLLEKFGEITNKLGPMLNSFMGAGNVDISGKLNELKANVETIRQQFTDPDLTTFVCVCISEFLSLYETERLIQELISYDMDVNSIIVNQLLFAENDQEHNCKRCQARWKMQKKYLDQIDELYEDFHVVKMPLCAGEIRGLNNLTKFSQFLNKEYNPITDGKVIYELEDKEGLVPRGSLEHHHHHH” as the sequence, how does the “soluble on expression in E. coli” value read?
A: The value was “soluble”.

Q: For “SNASYETSQHNLDAVEAVLSRLQKQTGEMAAYMVPVGYRALCVSQRESMQALRCSFVQGQSQPLLRGASSKVMLAYMPAARCEKILRYFGEDPTLDKWQSEFEKIRRHGYAVSTSEIDPGVSGISAPVMKGSKLIGAISVMAPAHRVESNKQRIILHVLQAARAL”, which “soluble on expression in E. coli” value is on record?
A: Its value is “soluble”.

Q: For “MGSDKIHHHHHHMTISEARLSPQVNLLPIKRHSNEEVEETAAILKKRTIDNEKCKDSDPGFGSLQRRLLQQLYGTLPTDEKIIFTYLQDCQQEIDRIIKQSIIQKESHSVILVGPRQSYKTYLLDYELSLLQQSYKEQFITIRLNGFIHSEQTAINGIATQLEQQLQKIHGSEEKIDDTSLETISSGSLTEVFEKILLLLDSTTKTRNEDSGEVDRESITKITVVFIFDEIDTFAGPVRQTLLYNLFDMVEHSRVPVCIFGCTTKLNILEYLEKRVKSRFSQRVIYMPQIQNLDDMVDAVRNLLTVRSEISPWVSQWNETLEKELSDPRSNLNRHIRMNFETFRSLPTLKNSIIPLVATSKNFGSLCTAIKSCSFLDIYNKNQLSNNLTGRLQSLSDLELAILISAARVALRAKDGSFNFNLAYAEYEKMIKAINSRIPTVAPTTNVGTGQSTFSIDNTIKLWLKKDVKNVWENLVQLDFFTEKSAVGLRDNATAAFYASNYQFQGTMIPFDLRSYQMQIILQELRRIIPKSNMYYSWTQL”, which “soluble on expression in E. coli” value is on record?
A: The value was “not soluble”.

Q: Which “soluble on expression in E. coli” value does the source give for “MLEQILLGTYTRRASQGIYKIALDTTQGRLTEATLLLEETSPTYLALSQKGELFSVTSVDGEGGTAAYQPEMDHFNLLNKVTEEGAPPCYVAVDENRQLVYAANYHQGIVHVYRILEDGSLEDADKVIHTEPTGPHENQNNAHVHYTDLTPDQRLVVCDLGTDRVYTYNVSLDGKLSEIAQFVTEPGTGPRHLVFHPTKSLAYLFGELDSTVSVLSYDETDGSFTELQKVSTLPADYDAFNGGAAIRISSDGRFLYASNRGHNSIAVYAVSENGEAIERIQLISTEGDIPRDFDLDPSEDFIVVANQDSDNLTLYRRNQETGLLEMIQKDVAVPECVCVLFVLEHHHHHH” here?
A: The value was “soluble”.

Q: With “SEDSGKTFSSEEEEANYWKDLAMTYKQRAENTQEELREFQEGSREYEAELETQLQQIETRNRDLLSENNRLRMELETIKEKFEVQHSEGYRQISALEDDLAQTKAIKDQLQKYIRELEQANDDLERAKRATIMSLEDFEQRLNQAIERNAFLESELDEKENLLESVQRLKDEARDLRQELAVQQKQEKPRTPMPSSVEAERTDTAVQATGSVPSTPIAHRGPSSSLNTPGSFRRGLDDSTGGTPLTPAARISALNIVGDLLRKVGALESKLASCRNLVYDQSPNRTGGPASGRSSKNRDGGERRPSSTSVPLGDKGLDTSCRWLSKSTTRSSSSC” as the sequence, how does the “soluble on expression in E. coli” value read?
A: The value was “soluble”.

Q: Which “soluble on expression in E. coli” value does the source give for “MGSDKIHHHHHHMGMSSDLIKPRRPSTSGCAIHCHDCSMEALCIPFTLNNDELDKLDSIIERKKPIQKGDLIFKSGDVLKSLYAIRSGTIKSYTITEQGDEQITGFHLAGDVIGFDGIHAQRHQSFAQALETSMVCEIPYDTLDDLSGSMPKLRQQIMRLMSNEIMSDQEMILLLSKKNAEERLAAFINNLANRFGNRGFSPHEFRLTMTRGDIGNYLGLTVETISRLLGRFQKSGLIEVKGKYISIIDHSALSTLAGNARIAT” here?
A: The value was “not soluble”.

Q: Which “soluble on expression in E. coli” value does the source give for “ATTLYLTRHGETKWNVERRMQGWQDSPLTEKGRQDAMRLGKRLEAVELAAIYTSTSGRALETAEIVRGGRLIPIYQDERLREIHLGDWEGKTHDEIRQMDPIAFDHFWQAPHLYAPQRGERFCDVQQRALEAVQSIVDRHEGETVLIVTHGVVLKTLMAAFKDTPLDHLWSPPYMYGTSVTIIEVDGGTFHVAVEGDVSHIEEVKEV” here?
A: Its value is “soluble”.

Q: Which “soluble on expression in E. coli” value does the source give for “GNDIDYSVGGSVSDAVSEVTEYANAKKNDPYGSWYTGRKVGEIWGYRAEGLIQTQEEADAYNAEYDLSYISGKLWEPGDVKYIDLDGNKVIDRGDNRLVDGDMGDQTIIGNTTPRYQYTFNGYISWKGLSLSVMFQGVGKRDWVAGGAYFWGFGPYAQVTVFKEHMDYWRPDNPGAYYPKPYINSAGGVAPYQDKNIQRTDLYLQNAAYCRLKNLTLSYDLPNAWVHKAGLQKVQVFFSGENLLTFTKLKGMFDPEAIFSSNSYTSEGGKNYPMNRVLSLGFIVNL” here?
A: Its value is “not soluble”.

Q: With “MSLYELTEDFKLRKITKYELDGIDEREDLLVIPPSSKAGPCGNACLFCYLLQNPPEMIYKVPRHDTLNDPDLENRIRYARKHYDLWIRVTDTSGNIKFDENRIKSLYDAGLDEIQISVHTTKKDVRARLMRNRQAGKLIDLLPLVAKHFRTIADIILTPGFNVEDIGEIIEDLDSMGVHEVRLFPVGVTRYNKFGVRPLTREELSYVKGIALEKDKELAIKVVIPPIFLALLGEFTTGLEPFDIEPDFPTYIFTGELAYQEMKRLFPRVNVIMVKNEFFGGNIGSAGLLTGRDILREVEKLPEVDLGLIILPELMFYGDMTLDGWRRQELFSKILIEKGYIVETALEPTEIPRVIEKVTLEGHHHHHH” as the sequence, how does the “soluble on expression in E. coli” value read?
A: The value was “soluble”.

Q: With “MIITTSRKPSQRTRSLVNDLARVFNFKILNRGKIPLSELIENKDDMIIVEELKGNPGRLKIFNFENNKILSMNLSLKLQREVSGKAFKNSGKLGSKFDKNTEHLKEFFFEYLFKKLSNYKEENFEVVITFKTVDESTFYIEVHKGSENMGPSLKIKTVKILDIELEHHHHHH” as the sequence, how does the “soluble on expression in E. coli” value read?
A: Its value is “not soluble”.

Q: With “MKRNLLSSAIIVAIMSLGLTGCDDKKAETETLPPANSQPAAPAPEAKPTEAPVAKAEAKPETPAQPVVDEQAVFDEKMDVYIKCYNKLQIPVQRSLARYADWLKDFKQGPTGEERTVYGIYGISESNLAECEKGVKSAVALTPALQPIDGVAVSYIDAAVALGNTINEMDKYYTQENYKDDAFAKGKTLHQTFLKNLEAFEPVAESYHAAIQEINDKRQLAELKNIEEREGKTFHYYSLAVMISAKQINNLISQDKFDAEAAMKKVSELETLVAQAKEADKGGMNFSFINSAGQYQLEAKKYVRRIRDKVPYSDWDKEQLQDANSSWMVEDSFPRALREYNEMVDDYNSLR” as the sequence, how does the “soluble on expression in E. coli” value read?
A: Its value is “soluble”.

Q: For “MSFIAYPCAVPTQRQVPMSPPTTPRILMKLCPIMEIPIIGGPRQNGTYNVFIFDLKIRKFIPHRCSSCAVKILEDHLSPMYASGSVIFMRNEVTQEVEQYVYSFETGGFQQVDYPELVYSAEKFTESSFIVMIENSDGKKVLIERGGNEAVRKLEYRLGKCVEMPKVEVQLLAAEEFDDADPWSDNDSLSSEHLDYNETLPAFKTTFCQDFQMYVLYIITSRGHYEKYIYNQSTSQFEILDCEKCPDTTREVDLLPKYAEFCEEIQAYVIHVFNSFTDRMEQYVFDSKIQGFVEVNQPELKYDSSKDQDPTSSIFFVLKGTTVIMRGAQGRLKKEVYCSIKKHFVEVPNSVIKSFDTQFMEKKQKMDKKKKAKKIKKSKKKASKESQELDVLVEKIRLCDDPFSDGPSCSTSPDIPEDAPDDGMSILKQKFVESLTTLYGGSLPPYVQKELEQI”, which “soluble on expression in E. coli” value is on record?
A: Its value is “not soluble”.

Q: Which “soluble on expression in E. coli” value does the source give for “MHIKPIIQGVVARSAHPYGCEQAVLQQIQYVKQANPIKSGPKRVLILGASSGFGLAARIALTFGGAQADTIGVSFERAPSETQTGSAGYYNNLFFKQHAEQAGRIAVNLEGDVFSVDMREQVIEAIETYFEGEVDLIIYSIASGMRRKPRSEKADPEFWRSAIKPIGEAVSGATLLLENDTWIETTLQPASEEEIEGTLRVMGGDDWENWIDTLINAESLAEGCKTIAFSYMGPDVTHPIYLDGTLGRAKIDLHQTSHALNLKLANFDGGAYAVVCKALVTKASVFIPGLSPYLLALYQVMKNKGTHEGCIEQMQRLFSDKLYGHSRIPLDSERLIRMDDWEMNPDTQVQVRERLQQMNASNFQQLGDYAGFKREFMQLNGFEFDQIDYSQSV” here?
A: Its value is “not soluble”.

Q: With “MNLFYNPKGVGDVAFIQIEPSVGPFEYEQKHGVVEIKKENEVVGYNIFNVSNNVTINDNGHIKLTTELIKDLQQLITEAGFDYQLDTDVSPKFVVGYVETKEKHPNADKLSVLNVNVGTEKLQIVCGAPNVESGQKVVVAKVGAVMPSGMVIKDAQLRGVDSSGMICSMKELNLPNAPKEKGIMVLNDDYDIGQAFFELEHHHHHH” as the sequence, how does the “soluble on expression in E. coli” value read?
A: The value was “soluble”.
